{"source": "patent US20240026007A1", "about": "(Boehringer Ingelheim, published 2024)", "key": {"[1]": {"biological_target": "LL-001 (…)/HLA-E 01:03 monomer complex (human)", "assay": "ELISA; monomer complex on neutravidin plate"}, "[2]": {"biological_target": "LL-002 (…)/HLA-E 01:03 monomer complex (human)", "assay": "ELISA; monomer complex on neutravidin plate"}, "[3]": {"biological_target": "V-0013 (…)/HLA-E 01:03 monomer complex (human)", "assay": "ELISA; monomer complex on neutravidin plate"}, "[4]": {"biological_target": "V-0038 (…)/HLA-E 01:03 monomer complex (human)", "assay": "ELISA; monomer complex on neutravidin plate"}, "[5]": {"biological_target": "P-0550 (…)/HLA-E monomer complex (human)", "assay": "ELISA; monomer complex on neutravidin plate"}, "[6]": {"biological_target": "T1, V-0025 (…)/HLA-A2 02:01 monomer complex (human)", "T1 construct": "also called V-0025 on HLA-A2*02:01", "assay": "ELISA; monomer complex on neutravidin plate"}, "[7]": {"biological_target": "0002-A2 (…)/HLA-A2 02:01 monomer complex (human)", "assay": "ELISA; monomer complex on neutravidin plate"}, "[8]": {"biological_target": "0003-A2 (…)/HLA-A2 02:01 monomer complex (human)", "assay": "ELISA; monomer complex on neutravidin plate"}, "[9]": {"biological_target": "T2, V-0018 (…)/HLA-A2 02:01 monomer complex (human)", "T2 construct": "also called ABI-V-0018; negative control (V-0018)", "assay": "ELISA; monomer complex on neutravidin plate"}, "[10]": {"biological_target": "T3, HLA-G signal peptide/HLA-E*0103 complex (ABI-V-0025; …) (human)", "T3 construct": "also called 0025-E 01:03 monomer complex; V-0025 HLA-E 01:03 monomer complex", "assay": "label-free (ResoSens), against the Octet value of R4", "method": "(§1) The method for determining the affinity was as follows. Thermofisher Capture Select™ Biotin anti-IgG-Fc (Hu) (diluted PBS buffer) was immobilized on neutravidin coated Bionetic label-free microarray plate at 5 ug/ml until binding reached equilibrium. Plate subsequently was washed 3× with 0.1% BSA, 0.1% Tween20, PBS dilution/wash buffer. […] Plate was subsequently washed in dilution/wash buffer 3×. V-0025 HLA-E 01:03 monomer complex (serial dilutions starting at 5 ug/ml in dilution/wash buffer) was added to wells and allowed to incubate for 20 minutes to determine the binding association and then immediately followed by dissociation (dilution/wash buffer) for approximately 25 minutes. Binding affinity calculated using Tracedrawer kinetic analysis software."}, "[11]": {"biological_target": "V-0021 (…)/HLA-E 01:03 monomer complex (human)", "assay": "ELISA; monomer complex 0.25 µg/ml on neutravidin plate, antibody 1 µg/ml"}, "[12]": {"biological_target": "T3, HLA-G signal peptide/HLA-E*0103 complex …", "assay": "label-free (ResoSens, Resonant Sensors); ABX0020 captured by anti-IgG-Fc, V-0025 HLA-E 01:03 monomer in solution (monovalent)", "method": "as §1"}, "[13]": {"biological_target": "T3, HLA-G signal peptide/HLA-E*0103 complex …", "assay": "label-free (ResoSens); V-0025 HLA-E 01:03 monomer on neutravidin plate, ABX0040 in solution"}}}
{"binder": "ABX0020 (antibody, human IgG1, kappa, also called R2-A12 hIgG1) heavy: not shown light: DIQMTQSPSSLSASVGDRVTITCRASQSISSYLNWYQQKPGKAPKLLIYAASSLQSGVPSRFSGSGSGTDFTLTISSLQPEDFATYYCQQSATYWDMFGQGTKVEIKRTVAAPSVFIFPPSDEQLKSGTASVVCLLNNFYPREAKVQWKVDNALQSGNSQESVTEQDSKDSTYSLSSTLTLSKADYEKHKVYACEVTHQGLSSPVTKSFNRGEC", "values": [{"measurement": "binding result", "setting": "[1]", "result": "no binding (tested: antibody 1 µg/ml, antigen 0.25 µg/ml)"}, {"measurement": "binding result", "setting": "[2]", "result": "no binding (tested: antibody 1 µg/ml, antigen 0.25 µg/ml)"}, {"measurement": "binding result", "setting": "[3]", "result": "no binding (tested: antibody 1 µg/ml, antigen 0.25 µg/ml)"}, {"measurement": "binding result", "setting": "[4]", "result": "no binding (tested: antibody 1 µg/ml, antigen 0.25 µg/ml)"}, {"measurement": "binding result", "setting": "[5]", "result": "no binding (tested: antibody 1 µg/ml, antigen 0.25 µg/ml)"}, {"measurement": "binding result", "setting": "[6]", "result": "no binding (tested: antibody 1 µg/ml, antigen 0.25 µg/ml)"}, {"measurement": "binding result", "setting": "[7]", "result": "no binding (tested: antibody 1 µg/ml, antigen 0.25 µg/ml)"}, {"measurement": "binding result", "setting": "[8]", "result": "no binding (tested: antibody 1 µg/ml, antigen 0.25 µg/ml)"}, {"measurement": "binding result", "setting": "[9]", "result": "no binding (tested: antibody 1 µg/ml, antigen 0.25 µg/ml)"}, {"measurement": "fold improvement of KD over the R4 clone", "setting": "[10]", "result": "> 200", "unit": "fold"}, {"measurement": "binding result", "setting": "[11]", "result": "binds"}, {"measurement": "Kd", "setting": "[12]", "result": 1.87, "unit": "nM"}]}
{"binder": "ABX0040 (bispecific antibody) chain 1: not shown chain 2: DIQMTQSPSSLSASVGDRVTITCRASQSISSYLNWYQQKPGKAPKLLIYAASSLQSGVPSRFSGSGSGTDFTLTISSLQPEDFATYYCQQSATYWDMFGQGTKVEIKRTVAAPSVFIFPPSDEQLKSGTASVVCLLNNFYPREAKVQWKVDNALQSGNSQESVTEQDSKDSTYSLSSTLTLSKADYEKHKVYACEVTHQGLSSPVTKSFNRGEC chain 3: EVQLVESGGGLVQPKGSLKLSCAASGFTFNTYAMNWVRQAPGKGLEWVARIRSKYNNYATYYADSVKDRFTISRDDSQSILYLQMNNLKTEDTAMYYCVRHGNFGNSYVSWFAYWGQGTLVTVSS chain 4: QAVVTQESALTTSPGETVTLTCRSSTGAVTTSNYANWVQEKPDHLFTGLIGGTNKRAPGVPARFSGSLIGDKAALTITGAQTEDEAIYFCALWYSNLWVFGGGTKLTVL", "values": [{"measurement": "Kd", "setting": "[13]", "result": 1.57, "unit": "nM"}]}
